T1: Human LRRC15 Protein, His Tag (Acro Biosystems) (human, UniProt Q8TF66 22-538, limits assumed)
T1 construct: not shown: His tag
T1 sequence (looked up): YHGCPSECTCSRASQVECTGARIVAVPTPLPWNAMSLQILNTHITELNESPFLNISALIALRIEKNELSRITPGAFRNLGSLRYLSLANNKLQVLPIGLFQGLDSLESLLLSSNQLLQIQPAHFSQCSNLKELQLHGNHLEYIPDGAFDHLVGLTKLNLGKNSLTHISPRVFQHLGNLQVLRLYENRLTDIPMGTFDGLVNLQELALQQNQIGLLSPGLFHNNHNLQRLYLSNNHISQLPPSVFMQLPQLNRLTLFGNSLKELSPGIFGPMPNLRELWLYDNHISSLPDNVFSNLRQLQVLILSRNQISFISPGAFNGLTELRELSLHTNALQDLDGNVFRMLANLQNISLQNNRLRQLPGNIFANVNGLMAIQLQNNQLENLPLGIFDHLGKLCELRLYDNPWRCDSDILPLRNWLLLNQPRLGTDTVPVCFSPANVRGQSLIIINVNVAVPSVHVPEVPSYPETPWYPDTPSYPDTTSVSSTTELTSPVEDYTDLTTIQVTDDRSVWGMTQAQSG


What follows are binders tested against T1, Human LRRC15 Protein, His Tag (Acro …) (assay: BLI; dissociation pH 7.4 black, pH 5.4 grey [2/2); D00026 FIG. 6B (2/2]).

Binder	binding result
MYT9716 (antibody, V domains shown, also called hu29F1 VH P102E) VH: EVQLVESGGGLVQPGGSLRLSCTASGFSFSSSHWICWVRQAPGKGLEWVGCIYAGSIGSTYYASWAKGRFTISRDTSKNTVYLQMNSLRAEDTAVYYCARAENDIYNYYFNLWGQGTLVTVSS VL: EIVMTQSPSTLSASVGDRVIITCQASENIYNYLAWYQQKPGKAPKLLIYYASTLASGVPSRFSGSGSGAEFTLTISSLQPDDFATYYCQSGYVSKSSTFGQGTKLTVL	binds
MYT9725 (antibody, V domains shown, also called hu29F1 VH N111E) VH: EVQLVESGGGLVQPGGSLRLSCTASGFSFSSSHWICWVRQAPGKGLEWVGCIYAGSIGSTYYASWAKGRFTISRDTSKNTVYLQMNSLRAEDTAVYYCARAPNDIYNYYFELWGQGTLVTVSS VL: EIVMTQSPSTLSASVGDRVIITCQASENIYNYLAWYQQKPGKAPKLLIYYASTLASGVPSRFSGSGSGAEFTLTISSLQPDDFATYYCQSGYVSKSSTFGQGTKLTVL	binds
MYT9724 (antibody, V domains shown, also called hu29F1 VH F110E) VH: EVQLVESGGGLVQPGGSLRLSCTASGFSFSSSHWICWVRQAPGKGLEWVGCIYAGSIGSTYYASWAKGRFTISRDTSKNTVYLQMNSLRAEDTAVYYCARAPNDIYNYYENLWGQGTLVTVSS VL: EIVMTQSPSTLSASVGDRVIITCQASENIYNYLAWYQQKPGKAPKLLIYYASTLASGVPSRFSGSGSGAEFTLTISSLQPDDFATYYCQSGYVSKSSTFGQGTKLTVL	binds
MYT9722 (antibody, V domains shown, also called hu29F1 VH Y108E) VH: EVQLVESGGGLVQPGGSLRLSCTASGFSFSSSHWICWVRQAPGKGLEWVGCIYAGSIGSTYYASWAKGRFTISRDTSKNTVYLQMNSLRAEDTAVYYCARAPNDIYNEYFNLWGQGTLVTVSS VL: EIVMTQSPSTLSASVGDRVIITCQASENIYNYLAWYQQKPGKAPKLLIYYASTLASGVPSRFSGSGSGAEFTLTISSLQPDDFATYYCQSGYVSKSSTFGQGTKLTVL	binds
MYT9726 (antibody, V domains shown, also called hu29F1 VH L112E) VH: EVQLVESGGGLVQPGGSLRLSCTASGFSFSSSHWICWVRQAPGKGLEWVGCIYAGSIGSTYYASWAKGRFTISRDTSKNTVYLQMNSLRAEDTAVYYCARAPNDIYNYYFNEWGQGTLVTVSS VL: EIVMTQSPSTLSASVGDRVIITCQASENIYNYLAWYQQKPGKAPKLLIYYASTLASGVPSRFSGSGSGAEFTLTISSLQPDDFATYYCQSGYVSKSSTFGQGTKLTVL	binds
